# In patent US20090280543A1, “REGIOSELECTIVE GLYCOSYLATION” (THE UNIVERSITY OF YORK, priority 2005, published 2009):
# Assay: Removal of aglycones through adsorption by PVPP, analysed by RP-HPLC
# Format: physicochemical
# Settings: ratio of compounds removed by PVPP over that in the untreated samples
# Method: FIG. 7: Removal of different aglycones through adsorbtion by PVPP. The removal of a) trans-resveratrol (100%), b) esculetin (70%), c) daidzein (81%), and d) scopoletin (92%) by PVPP was analyzed by RP-HPLC. The efficiency was defined as the ratio of compounds removed by PVPP over that in the untreated samples;
# (§1) Reverse-phase HPLC (RP-HPLC): RP-HPLC (Agilent 1100 system with Photodiode Array Detector, Agilent, U.K.) analysis was carried out using a Columbus 5-μ C18 column (150×3.20 mm, Phenomenex, U.K.). Glucosides were separated from their respective aglycones using a linear gradient of acetonitrile/0.1% formic acid (v/v) in H2O: 10-45% (trans-resveratrol/glucosides), 10-50% (daidzein/glucosides) at 0.5 mL/min over 20 min and monitored at 280 nm and 250 nm. Separation of scopoletin/scopolin and esculetin/esculin was carried out using the conditions described previously.^[11]
# (§2) Stage 3, detection: 50 μl of the reaction mix were transferred to a 96-well filtration plate (Abgene, U.K.), mixed with an equal volume of PVPP aqueous suspension (25 g/L), shaken for 1 h at 25° C. before centrifugation (1000 g, 5 min). To each filtrate, 50 mM 2-morpholino-ethanesulfonic acid buffer (MES) (pH 7.0), ABTS™ (0.1 mM), peroxidase (2 U) and glucose oxidase (2 U) were added to a final volume of 125 μl. The formation of the green dye was monitored at 405 nm at 30 min using a plate reader (Bio-Tec Instruments Inc., U.S.A).
row,Molecule,removal by PVPP (efficiency) [%]
1,O=c1c(-c2ccc(O)cc2)coc2cc(O)ccc12 [daidzein],81
2,O=c1ccc2cc(O)c(O)cc2o1 [esculetin],70
3,COc1cc2ccc(=O)oc2cc1O [scopoletin],92
4,Oc1ccc(/C=C/c2cc(O)cc(O)c2)cc1 [trans-resveratrol],100

# Assay: Whole-cell biocatalysis screen of GT library against the aglycone trans-resveratrol (RP-HPLC of glucosides)
# Format: cell-based, E. coli
# Settings: 500 µM aglycone, 44 h, 25° C.
# Excerpt: FIG. 4: Screening of a GT-library against the aglycone trans-resveratrol. a) The readings at A405 nm for D-glucose detection are presented in a colored code format. b) Examples of RP HPLC trace of active and non active GTs in whole cell biocatalysis are illustrated. c) The regioselectivity of the active GTs towards trans-resveratrol, defined by the percentage of a regiospecific glucoside in the total amount of monoglucosides formed;
# as §1
# The cDNA library of 96 Arabidopsis thaliana GTs was subcloned into the multiple cloning site of the glutathione-S-transferase (GST) gene fusion vector pGEX-2T (Amersham Biosciences, U.K.) as described previously^[10] and transformed into the strain E. coli BL21 (DE3) for use in the screening method.
# Stage 1, biotransformation: single colonies of the GT library grown on LB-agar plates overnight were transferred to individual wells in a 96-well bacterial culture plate containing 400 μl 2×YT medium (16 g/L bacto tryptone, 10 g/L yeast extract, 5 g/L NaCl) and 50 μg/mL ampicillin. The plate was covered with an adhesive plate seal (Abgene, U.K.) and incubated at 37° C. (250 rpm). The bacterial growth was monitored at 595 nm by a plate reader. After 4 h, the cultures had reached exponential phase. The plate was centrifuged (4000 g, 10 min), the supernatants discarded and cell pellets were resuspended in isopropyl-D-thiogalactopyranoside (0.1 mM), 2-(N-morpholino)ethanesulfonic acid (50 mM, pH 7.0), ampicillin (50 μg/mL), L-arabinose (10 g/L) and 500 µM of aglycone to a total whole-cell reaction volume of 400 μl/well. The 96-well plate was closed with a gas permeable adhesive plate seal, wrapped in alu foil for light protection and incubated at 25° C. (250 rpm). After 44 h the cultures were centrifuged (4000 g, 15 min) and the supernatants analyzed.
# Stage 2, cleavage: supernatants (100 μl) were transferred to a microtiter plate, 1 μl of β-glucosidase (1 U) was added and the plate incubated for 90 min at 37° C.
# as §2
# The utility of the screening method and regioselective biocatalysis by the GTs are illustrated in FIGS. 2 and 3. Thirteen GTs recognized daidzein and twenty-five GTs were identified that glycosylated trans-resveratrol. […] The mono- and di-glucosides of daidzein (4-6) and trans-resveratrol (8-10), eluting earlier than the two aglycones under the RP-HPLC conditions used (FIGS. 2b and 3b), were identified using external standards when available, or by electrospray liquid chromatography-mass spectrometry (LC-MS). ^1H-NMR analysis was used to confirm the structure of the monoglucosides (Table 1, SEQ ID NO: 1-107). […] Similarly, regioselective glycosylation of trans-resveratrol was observed. […] Only trace levels of a diglucoside were observed under the reaction conditions used.
row,Molecule,regioselective glycosylation of trans-resveratrol (position)
1,"GT 74B1: Arabidopsis thaliana glycosyltransferase, SEQ ID NO: 35 (nucleotide), 124 (amino acid) (protein, listed as Arabidopsis thaliana) MAETTPKVKGHVVILPYPVQGHLNPMVQFAKRLVSKNVKVTIATTTYTASSITTPSLSVEPISDGFDFIPIGIPGFSVDTYSESFKLNGSETLTLLIEKFKSTDSPIDCLIYDSFLPWGLEVARSMELSAASFFTNNLTVCSVLRKFSNGDFPLPADPNSAPFRIRGLPSLSYDELPSFVGRHWLTHPEHGRVLLNQFPNHENADWLFVNGFEGLEETQDCENGESDAMKATLIGPMIPSAYLDDRMEDDKDYGASLLKPISKECMEWLETKQAQSVAFVSFGSFGILFEKQLAEVAIALQESDLNFLWVIKEAHIAKLPEGFVESTKDRALLVSWCNQLEVLAHESIGCFLTHCGWNSTLEGLSLGVPMVGVPQWSDQMNDAKFVEEVWKVGYRAKEEAGEVIVKSEELVRCLKGVMEGESSVKIRESSKKWKDLAVKAMSEGGSSDRSINEFIESLGK",specific for the 4′-OH position
2,"GT 71 D1: Arabidopsis thaliana glycosyltransferase, SEQ ID NO: 12 (nucleotide), 111 (amino acid) (protein, listed as Arabidopsis thaliana) MRNVELIFIPTPTVGHLVPFLEFARRLIEQDDRIRITILLMKLQGQSHLDTYVKSIASSQPFVRFIDVPELEEKPTLGSTQSVEAYVYDVIERNIPLVRNIVMDILTSLALDGVKVKGLVVDFFCLPMIDVAKDISLPFYVFLTTNSGFLAMMQYLADRHSRDTSVFVRNSEEMLSIPGFVNPVPANVLPSALFVEDGYDAYVKLAILFTKANGILVNSSFDIEPYSVNHFLQEQNYPSVYAVGPIFDLKAQPHPEQDLTRRDELMKWLDDQPEASVVFLCFGSMARLRGSLVKEIAHGLELCQYRFLWSLRKEEVTKDDLPEGFLDRVDGRGMICGWSPQVEILAHKAVGGFVSHCGWNSIVESLWFGVPIVTWPMYAEQQLNAFLMVKELKLAVELKLDYRVHSDEIVNANEIETAIRYVMDTDNNVVRKRVMDISQMIQRATKNGGSSFAAIEKFIYDVIGIKP",specific for the 3-OH position
3,"GT 88A1: Arabidopsis thaliana glycosyltransferase, SEQ ID NO: 97 (nucleotide), 133 (amino acid) (protein, listed as Arabidopsis thaliana) MGEEAIVLYPAPPIGHLVSMVELGKTILSKNPSLSIHIILVPPPYQPESTATYISSVSSSFPSITFHHLPAVTPYSSSSTSRHHHESLLLEILCFSNPSVHRTLFSLSRNFNVRAMIIDFFCTAVLDITADFTFPVYFFYTSGAACLAFSFYLPTIDETTPGKNLKDIPTVHIPGVPPMKGSDMPKAVLERDDEVYDVFIMFGKQLSKSSGIIINTFDALENRAIKAITEELCFRNIYPIGPLIVNGRIEDRNDNKAVSCLNWLDSQPEKSVVFLCFGSLGLFSKEQVIEIAVGLEKSGQRFLWVVRNPPELEKTELDLKSLLPEGFLSRTEDKGMVVKSWAPQVPVLNHKAVGGFVTHCGWNSILEAVCAGVPMVAWPLYAEQRFNRVMIVDEIKIAISMNESETGFVSSTEVEKRVQEIIGECPVRERTMAMKNAAELALTETGSSHTALTTLLQSWSPK",specific for the 3-OH position
4,"GT 72D1: Arabidopsis thaliana glycosyltransferase, SEQ ID NO: 18 (nucleotide), 113 (amino acid) (protein, listed as Arabidopsis thaliana) MDQPHALLVASPGLGHLIPILELGNRLSSVLNIHVTILAVTSGSSSPTETEAIHAAAARTICQITEIPSVDVDNLVEPDATIFTKMVVKMRAMKPAVRDAVKLMKRKPTVMIVDFLGTELMSVADDVGMTAKYVYVPTHAWFLAVMVYLPVLDTVVEGEYVDIKEPLKIPGCKPVGPKELMETMLDRSGQQYKECVRAGLEVPMSDGVLVNTWEELQGNTLAALREDEELSRVMKVPVYPIGPIVRTNQHVDKPNSIFEWLDEQRERSVVFVCLGSGGTLTFEQTVELALGLELSGQRFVWVLRRPASYLGAISSDDEQVSASLPEGFLDRTRGVGIVVTQWAPQVEILSHRSIGGFLSHCGWSSALESLTKGVPIIAWPLYAEQWMNATLLTEEIGVAVRTSELPSERVIGREEVASLVRKIMAEEDEEGQKIRAKAEEVRVSSERAWSKDGSSYNSLFEWAKRCYLVP",specific for the 3-OH position
5,"GT 71C2: Arabidopsis thaliana glycosyltransferase, SEQ ID NO: 8 (nucleotide), 109 (amino acid) (protein, listed as Arabidopsis thaliana) MAKQQEAELIFIPFPIPGHILATIELAKRLISHQPSRIHTITILHWSLPFLPQSDTIAFLKSLIETESRIRLITLPDVQNPPPMELFVKASESYILEYVKKMVPLVRNALSTLLSSRDESDSVHVAGLVLDFFCVPLIDVGNEFNLPSYIFLTCSASFLGMMKYLLERNRETKPELNRSSDEETISVPGFVNSVPVKVLPPGLFTTESYEAWVEMAERFPEAKGILVNSFESLERNAFDYFDRRPDNYPPVYPIGPILCSNDRPNLDLSERDRILKWLDDQPESSVVFLCFGSLKSLAASQIKEIAQALELVGIRFLWSIRTDPKEYASPNEILPDGFMNRVMGLGLVCGWAPQVEILAHKAIGGFVSHCGWNSILESLRFGVPIATWPMYAEQQLNAFTIVKELGLALEMRLDYVSEYGEIVKADEIAGAVRSLMDGEDVPRRKLKEIAEAGKEAVMDGGSSFVAVKRFIDGL",specific for the 3-OH position
6,"GT 71C4: Arabidopsis thaliana glycosyltransferase, SEQ ID NO: 10 (nucleotide), 110 (amino acid) (protein, listed as Arabidopsis thaliana) MVKETELIFIPVPSTGHILVHIEFAKRLINLDHRIHTITILNLSSPSSPHASVFARSLIASQPKIRLHDLPPIQDPPPFDLYQRAPEAYIVKLIKKNTPLIKDAVSSIVASRRGGSDSVQVAGLVLDLFCNSLVKDVGNELNLPSYIYLTCNARYLGMMKYIPDRHRKIASEFDLSSGDEELPVPGFINAIPTKFMPPGLFNKEAYEAYVELAPRFADAKGILVNSFTELEPHPFDYFSHLEKFPPVYPVGPILSLKDRASPNEEAVDRDQIVGWLDDQPESSVVFLCFGSRGSVDEPQVKEIARALELVGCRFLWSIRTSGDVETNPNDVLPEGFMGRVAGRGLVCGWAPQVEVLAHKAIGGFVSHCGWNSTLESLWFGVPVATWPMYAEQQLNAFTLVKELGLAVDLRMDYVSSRGGLVTCDEIARAVRSLMDGGDEKRKKVKEMADAARKALMDGGSSSLATARFIAELFEDGSSC",specific for the 3-OH position
